Drawing on the supplement of paper PMC10567573, this text covers protein stability index for 73 sequences.

The series can be described thus: protein stability index of a GFP-peptide fusion (GPS, HEK-293T) (PSI 1-6); higher = more stable.
Setting [1] is: treatment: DMSO, c terminus: a fixed tail appended.
[2] abbreviates: treatment: MLN4924 1 uM, 8 h, c terminus: a fixed tail appended.
The mark [3] stands for this setting: treatment: DMSO, c terminus: native.
The mark [4] stands for this setting: treatment: MLN4924 1 uM, 8 h, c terminus: native.

± gives the standard deviation.
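Also: 24-mer peptide tiles fused after GFP, lentivirally expressed, FACS-sorted into six equal bins by GFP/DsRed ratio, decoded by Illumina sequencing, PSI is the read-weighted mean bin number.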

In the case of FGELRLGKNLYTNEYVAIKLEPIK [CSNK1G1], the protein stability index reads like this: under setting [1], 3.02 ± 0.94; under setting [2], 2.04 ± 0.47.
The matching figures for FGGTGIPFGESNGNGVHVCNVKYK [KLHDC10]: 2.52 ± 0.35 and 3.06 ± 0.51.
Turning to FIIFGTMEEMQNKAVVFFVFYLWS [HACD3], the protein stability index came out at 2.8 ± 0.69 under setting [1] and 2.75 ± 0.13 under setting [2].
The matching figures for FIPECNDDGTYSQVQCHSYTGYCW [SMOC2]: 2.79 ± 1 and 2.27 ± 0.45.
With FLGLGAPNCLSMGSRCLKTFEVPE [ZBED1], the protein stability index worked out at 2.3 ± 0.2 under setting [1] and 2.06 ± 0.28 under setting [2].
The corresponding values for FLLKFLLVGDRDVGKSEILESLQD [RAB40A] are 2.65 ± 0.43 and 2.9 ± 0.56.
The corresponding values for FLVDMFNDEIEEVRLQSIHTMRKI [INTS4] are 2.33 ± 0.13 and 2.54 ± 0.34.
The matching figures for FMLEIVTPTSLSSLSNAVANTMEH [FBXO33]: 2.77 ± 0.75 and 2.7 ± 0.55.
On to FNPPPSRPLQVNTADHRIYSYVVS [FAF2], for which the protein stability index stood at 2.62 ± 0.29 under setting [1] and 2.92 ± 0.38 under setting [2].
The matching figures for FPDLLLTKRDSFLKRLYRAPIDWI [ALG2]: 2.27 ± 0.29 and 2.64 ± 0.52.
Regarding FPLLPDHATALVEAFRLKQQLHAR [PPEF2], the protein stability index runs as follows: under setting [1], 2.74 ± 0.11; under setting [2], 2.79 ± 0.09.
The corresponding values for FPPDLVFRADQRSGPRQLLTLYNP [MOSPD3] are 3.13 ± 0.67 and 2.93 ± 0.29.
The corresponding values for FPYVVLACFLVRGLLLRGAVDGIL [SLC6A17] are 2.8 ± 0.65 and 3.12 ± 1.1.
The matching figures for FQNRRMKHKRQMQDPQLHSPFSGS [VENTX]: 3.3 ± 0.38 and 3.48 ± 0.31.
Regarding FQQDTKGLVDFRDVALALAALDGG [LPCAT4], the protein stability index reads like this: under setting [1], 2.48 ± 0.3; under setting [2], 2.71 ± 0.2.
With FQQLMVETCSCGYYLHPLPAGAEY [SCNN1D], the protein stability index reads like this: under setting [1], 2.6 ± 0.69; under setting [2], 2.8 ± 0.69.
Turning to FQTAIDIFEDRIRGIDIIKWMERY [TRAF3IP2], the protein stability index was 1.9 ± 0.34 under setting [1] and 2.43 ± 0.66 under setting [2].
The matching figures for FQTLMFLVRDWSFPYEYSYGLQGG [ATL3]: 3.88 ± 1 and 3.15 ± 0.28.
In the case of FRKFIPKCSKIVIDFDSINSRPSQ [DCTD], the protein stability index runs as follows: under setting [1], 2.4 ± 0.27; under setting [2], 2.15 ± 0.33.
The matching figures for FRRGSGSACSLLCCCGRDPSEEHS [MCOLN1]: 3.58 ± 0.35 and 3.33 ± 0.24.
The corresponding values for FRTKFETEQALRLSVEADINGLRR [KRT17] are 3.37 ± 0.14 and 3.38 ± 0.32.
The matching figures for FSRVVHLYRNGKDQDGDQAPEYRG [MOG]: 3.77 ± 0.21 and 3.88 ± 0.34.
Turning to FSTVWLCWDMQGKRFVAMKVVKSA [SRPK2], the protein stability index reads like this: under setting [1], 2.46 ± 0.63; under setting [2], 2.46 ± 0.28.
The corresponding values for FTQPQQTSFALERNLRTQQEIEDK [C8orf76] are 4.87 ± 0.37 and 4.9 ± 0.24.
The matching figures for FTTFFIDCMAALGLAYDRKKVSKA [SCD]: 2.07 ± 0.32 and 2.26 ± 0.53.
The matching figures for FTTLTDRELEEYRREVERKQKGSE [ADD1]: 4.53 ± 0.35 and 4.72 ± 0.4.
As for FVCQCFEGYILREDGKTCRRKDVC [MATN2], the protein stability index by setting is: under setting [1], 1.99 ± 0.39; under setting [2], 3.09 ± 0.092.
The corresponding values for FVLFLFAYLVTVRGNLSILAAVLV [OR3A1] are 3.21 ± 0.52 and 3.33 ± 0.34.
The matching figures for FVLNAAQCSMPLHVAPLLAAAGLH [NR2F2]: 3.13 ± 0.25 and 2.49 ± 0.48.
The matching figures for FYGETVADYFATFVQREEQLQFLI [CDS1]: 2.71 ± 0.79 and 2.43 ± 0.32.
GARSKGQCPEPPIVVHCSAGIGRT [PTPN9]: the protein stability index by setting is: under setting [1], 3.46 ± 0.32; under setting [2], 3.77 ± 0.46.
The corresponding values for GASKAAGVFGFFATIVFATDFYLI [CMTM3] are 3.07 ± 0.23 and 2.88 ± 0.88.
On to GCWATDAAPAAGLCGAGSEPSIAP [RSPH3], for which the protein stability index is, setting by setting: under setting [1], 4.26 ± 0.25; under setting [2], 4.41 ± 0.07.
Turning to GDAGSRGPMGMRGPPGPQGPPGSP [EMID1], under setting [2], the protein stability index is 4.54 ± 1.7.
On the same count and under the same terms, to GDEMTSLSEYVSRMKETQKSIYYI [HSP90AB1] belongs 2.81 ± 0.3.
Regarding GDKCHSLVGKPKIFIIQACRGNQH [CASP6], the protein stability index reads like this: under setting [1], 2.19 ± 0.3; under setting [2], 2.33 ± 0.66.
The corresponding values for GEPRKLLTQDWVQENYLEYRQVPG [MAGEA10] are 3.62 ± 0.17 and 4.15 ± 0.3.
As for GERETRTPEELTILGETQEEEDEI [CLCN6], the protein stability index runs as follows: under setting [1], 5.79 ± 0.11; under setting [2], 5.64 ± 0.37.
The matching figures for GFWETIFGNRIKRVKLISNKGTET [PHTF1]: 1.6 ± 0.16 and 2.74 ± 0.053.
Regarding GGCTVGVAGEGVRRKGEMGLSAED [TRIM15], the protein stability index by setting is: under setting [1], 4.98 ± 0.46; under setting [2], 5.21 ± 0.37.
The corresponding values for GGGGLHSVGTYIIDLLTFLTGQKA [GFOD1] are 2.1 ± 0.31 and 1.98 ± 0.36.
As for GGRRRPPASSRNRSPSGSLRSARG [RBMY1A1], the protein stability index is, setting by setting: under setting [1], 5.16 ± 0.28; under setting [2], 5.2 ± 0.18.
For the sequence GGTSVGSLGVPGSVGGVPGGTGSG [ZBTB22], the protein stability index stood at 4.41 ± 0.29 under setting [1] and 4.76 ± 0.088 under setting [2].
The corresponding values for GHSLKNLEHRLNEMERTQAQLRDA [RASAL3] are 4.51 ± 0.24 and 4.58 ± 0.22.
The corresponding values for GIIRCPDGISIPELREACDYLCIS [BTBD10] are 2.36 ± 0.35 and 2.5 ± 0.2.
The corresponding values for GILRARRGEGIQAPSFSSYLYFLF [SOAT2] are 2.29 ± 0.31 and 2.11 ± 0.28.
With GKETMCTVDGLHFNSTYNARVKAF [TRIM9], the protein stability index stood at 3.1 ± 0.37 under setting [1] and 3.08 ± 0.23 under setting [2].
Take GKHITVFKTYISPWERAMGVDPQQ [MYOZ1]: the protein stability index amounted to 2.33 ± 0.27 under setting [1] and 2.18 ± 0.46 under setting [2].
The corresponding values for GKYNAMVLELLGPSLEDLFDLCDR [CSNK1G3] are 2.92 ± 0.28 and 2.18 ± 0.28.
Regarding GLDSISHDSANCELPLLTPCSKAV [ETS2], the protein stability index turned out to be 4.47 ± 0.076 under setting [1] and 4.55 ± 0.28 under setting [2].
The matching figures for GLEALAGGDLMPAPADPTAREGLA [FCHO1]: 5.2 ± 0.15 and 5.23 ± 0.21.
The matching figures for GLEGLFEDIDTSMYDNELWAPASE [SERTAD1]: 3.79 ± 0.05 and 3.81 ± 0.29.
The corresponding values for GLKPNSLYYFRLAARSPQGLGAST [PTPRD] are 1.89 ± 0.099 and 2.85 ± 1.
As for GLLKYCSLLVHGFKPACMSEIKNL [TENT5D], the protein stability index runs as follows: under setting [1], 3.48 ± 0.69; under setting [2], 2.59 ± 1.2.
In turn, GLMSFIGNRNKLGYSLARGSIGF [TPRG1] had a protein stability index under setting [3] of 2.67 ± 0.39 and a protein stability index under setting [4] of 2.5 ± 0.97.
In the case of GLTLGRSFSNYRPFEPQALGLSPS [SEPHS2], the protein stability index by setting is: under setting [1], 2.78 ± 0.36; under setting [2], 2.81 ± 0.49.
The matching figures for GPQTPKACDSKLTFDAITTIRGEV [MMP1]: 3.69 ± 0.28 and 3.66 ± 0.25.
The matching figures for GQESEVPYKREEEALEERRLSRGE [PKD2L1]: 5.39 ± 0.14 and 5.53 ± 0.15.
The corresponding values for GQRQLMVPARDGTSCKLTDLRGVC [ADAMTSL2] are 3.08 ± 0.28 and 3.01 ± 0.16.
As for GRVSKQASQPVKKQQENATSCSLE [WDR41], the protein stability index was 5.22 ± 0.1 under setting [1] and 5.29 ± 0.16 under setting [2].
For the sequence GSACSLLCCCGRDPSEEHSLLVN [MCOLN1], the protein stability index came to 2.3 ± 0.39 under setting [3] and 2.27 ± 0.38 under setting [4].
For the sequence GSDTGASLKLASSELERLIVPNSN [JUNB], the protein stability index runs as follows: under setting [1], 4.31 ± 0.057; under setting [2], 4.15 ± 0.17.
The matching figures for GSELRDFPGRPMGHLSKDVDENDS [DLC1]: 5.63 ± 0.24 and 5.51 ± 0.17.
Turning to GTGGEEVEALQLSARWLEVLRTYL [FBXO33], the protein stability index runs as follows: under setting [1], 2.41 ± 0.23; under setting [2], 2.32 ± 0.31.
The corresponding values for GVLRPTVRPGTPPDFILKVVIDKH [CTDNEP1] are 2.73 ± 0.35 and 2.67 ± 0.2.
The corresponding values for GYHQVPGSAAPGSPLAADPACLGQ [FOXJ1] are 4.46 ± 0.22 and 4.29 ± 0.18.
The matching figures for GYTFDYAYDWVGRPIPTPVGSVHV [CSNK1G1]: 2.13 ± 0.44 and 2.14 ± 0.4.
Consider HAPKIGSNGVEMAAKFPSGSQRAR [SDE2], for which the protein stability index by setting is: under setting [1], 4.56 ± 0.13; under setting [2], 4.62 ± 0.19.
The matching figures for HDLIFWRDVKKTGFVFGTTLIMLL [RTN3]: 2.81 ± 0.37 and 2.66 ± 0.49.
As to HEKTVDIYGHVTLMRAQRNYMVQT [PTPRD], the protein stability index runs as follows: under setting [1], 2.32 ± 0.4; under setting [2], 2.18 ± 0.43.
The matching figures for HPDSPATGAHWMRQPVSFHRVKLT [TBX6]: 3.16 ± 0.16 and 3.23 ± 0.32.
The corresponding values for HPTYEEKLKLVALHKQVLMGPYNP [ACBD3] are 2.6 ± 0.34 and 2.69 ± 0.37.
The matching figures for HSFNFVLSANLHGGAVVANYPYDK [CPN1]: 2.19 ± 0.44 and 2.4 ± 0.2.
